Measured values from PMC9922763 (Frontiers in Molecular Biosciences, 2023).
Where no end group is shown, it is not given here.

B1: aSyn (61–95) BiFC fusion: aSyn residues 61–95, 17-residue linker, N-terminal or C-terminal fragment of Venus (domain or fragment)
chain: not shown
notes: alpha-synuclein (aSyn), residues 61-95, the non-amyloid-B component (NAC) region, 35 amino acids; 17-amino acid linker between the protein of interest and the Venus fragment; One molecule stands for both constructs, aSVN (Venus 1-173) and aSVC (Venus 155-239); the label in each row tells which was used; A start methionine and residues coded by the restriction sites are not described; also called …
B2: IAPP BiFC fusion: human IAPP, 17-residue linker, N-terminal or C-terminal fragment of Venus (peptide)
chain: KCNTATCATQRLANFLVHSSNNFGAILSSTNVGSNTYRPACKIPNDLKQKVMNH
modifications: cysteine pairing not given here; also: fused to N- or C-terminal Venus fragment, not in chain
notes: human islet amyloid polypeptide (IAPP), the 37-amino acid long peptide cut from proIAPP; 17-amino acid linker between the protein of interest and the Venus fragment; One molecule stands for both constructs, IVN (Venus 1-173) and IVC (Venus 155-239); the label in each row tells which was used; a start methionine is not described; also called IVN; IVC; source: HEK293, transfected (pcDNA3.1 zeo+), …

Molecular target: the molecule itself
Experiment: split reporter (BiFC, NanoBiT); BiFC with split Venus in transfected HEK293 cells; percent of fluorescent cells by flow cytometry (Accuri C6 plus) 24 h after transfection

Protein | percent of cells with a fluorescent BiFC signal [%]
B1 | 29.3
B2 | 19.7
